Biological target: PPxY-containing peptide
Experiment: isothermal titration calorimetry, ratio of equilibrium dissociation constants (mutant vs wild-type Nedd4.3 WW domain)

fold effect on peptide binding relative to wild-type: 5.15 fold
Substance: Nedd4.3 WW domain L3A mutant (from UniProt Q62940 459-492)

From US20070212700A1, “Methods of using and analyzing biological sequence data” (THE BOARD OF REGENTS OF THE UNIVERSITY OF TEXAS SYSTEM, priority 2005, published 2007)
